Measurements reported in patent publication US8697369B2, “Method for screening a test substance for activating a receptor associated with FGF 21 activity” (National Institute of Advanced Industrial Science and …, priority 2007, dated 2014).
Entries after “also recorded” stand apart in the source; their conditions may differ.

Tests used:
[1] = molecular target: T1, R1c/betaKlotho-expressing cells (Mus musculus, UniProt P16092+Q99N32); experiment: Phosphorylation of FRS2 and MAPK (Western blotting) in R1c/betaKlotho-expressing cells; type: cell-based; settings: presence of heparin; 10 minutes stimulation
T1 construct: the entire-length cDNA of mouse FGFR1c had been cloned; the entire-length cDNA of mouse betaKlotho was cloned into an animal cell expression vector; expressed in transfected cells; host or cells: BaF3 (mouse pro-B) cells
Procedure: (§1) Each FGFR/betaKlotho-expressing cells obtained in Example 6 were stimulated with FGF, and the activated state (phosphorylated state) of a signaling molecule FRS2 (fibroblast growth factor receptor substrate 2) located downstream of FGFR, and that of MAPK (mitogen activated protein kinase; alias: ERK (extracellular signal-regulated kinase; in general, there are two types of ERKs, namely, ERK1 with a molecular weight of 44 kDa and ERK2 with a molecular weight of 42 kDa)), were analyzed. Different types of cells were stimulated with each FGF in the presence of heparin for 10 minutes, and a cell lysate was then prepared. Thereafter, the phosphorylated degree was evaluated by measuring it by a Western blotting method using a commercially available anti-phosphorylation FRS2 antibody or an anti-phosphorylation MAPK antibody.

[2] = molecular target: T2, FGFR2c/betaKlotho-expressing cells (Mus musculus, UniProt P21803+Q99N32); experiment: Phosphorylation of FRS2 and MAPK (Western blotting) in FGFR2c/betaKlotho-expressing cells; type: cell-based; settings: presence of heparin; 10 minutes stimulation
T2 construct: the entire-length cDNA of mouse betaKlotho was cloned into an animal cell expression vector; expressed in transfected cells; host or cells: BaF3 (mouse pro-B) cells
Procedure: as §1

[3] = tested on: R3c/betaKlotho-expressing cells; experiment: Phosphorylation of FRS2 and MAPK (Western blotting) in R3c/betaKlotho-expressing cells; type: cell-based, mouse; settings: presence of heparin; 10 minutes stimulation
Procedure: as §1

[4] = tested on: betaKlotho/FGFR-expressing cells (FGFR1b, R1c, R2b, R2c, R3b, R3c, R4); experiment: Thymidine incorporation in betaKlotho/FGFR-expressing BaF3 cells with or without heparin; type: cell-based, mouse; settings: presence versus absence of heparin
Procedure: An expression vector of such FGF receptor (FGFR1b, R1c, R2b, F2c, R3b, R3c, and R4) was introduced into BaF3 cells expressing betaKlotho, and each type of betaKlotho/FGFR-expressing cells were stimulated with FGF21 and FGF1 in the presence or absence of heparin, so that the ability of the cells to incorporate thymidine therein was measured. As a result, it was shown that both FGFR1c- and FGFR3c-expressing cells react with FGF21.
(§2) Whether other receptor molecules can also act as such FGF receptors was examined. An expression vector containing each FGFR (FGFR1b, R1c, R2b, R2c, R3b, R3c, and R4) (described in Ornitz, D. M., Xu, J., Colvin, J. S., McEwen, D. G., MacArthur, C. A., Coulier, F., Gao, G. and Goldfarb, M. (1996) Receptor specificity of the fibroblast growth factor family. J Biol Chem, 271, 15292-15297.) was introduced into betaKlotho-expressing BaF3 cells, so as to obtain clones that were resistant to Puromycin and G418, thereby obtaining FGFR/betaKlotho-expressing cells. Such cells were stimulated with FGF21, and the amount of DNA synthesized was measured.

[5] = tested on: FGFR4/betaKlotho-expressing cells; experiment: Phosphorylation of FRS2 and MAPK (Western blotting) in FGFR4/betaKlotho-expressing cells; type: cell-based, mouse; settings: presence of heparin; 10 minutes stimulation
Procedure: as §1

[6] = tested on: FGFR4/betaKlotho-expressing BaF3 cells; experiment: DNA synthesis (thymidine incorporation) in FGFR4/betaKlotho-expressing BaF3 cells; type: cell-based, mouse; settings: BaF3 cells expressing FGFR4 and betaKlotho; presence of heparin
Procedure: (§3) A commonly used measurement method is a cell growth stimulating activity measurement method described in Ornitz, D. M., Xu, J., Colvin, J. S., McEwen, D. G., MacArthur, C. A., Coulier, F., Gao, G. and Goldfarb, M. (1996) Receptor specificity of the fibroblast growth factor family. J Biol Chem, 271, 15292-15297. The summary thereof is as follows. FGF used as a measurement target is added to a culture solution containing a cultured cell having an FGF receptor on the surface thereof, and the obtained mixture is cultured for a certain period of time. Thereafter, a labeled thymidine is added to the culture solution, followed by further culture for a certain period of time. By measuring the amount of the labeled thymidine incorporated into polymeric DNA during the culture, the degree of FGF to activate DNA synthesis is evaluated. (In the present invention as well, this method was adopted when the activity of FGF21 was measured in Examples 4, 5, 6, 8, 9, and 10.)
as §2
(§4) The activity of FGF21 to stimulate the DNA synthesis of BaF3 cells that had expressed each FGFR (FGFR1c, R2c, F3c, and R4) as well as betaKlotho was compared with the activity of FGF19, which was evolutionally relative to FGF21. […] The cells were stimulated with FGF21, FGF19, and FGF1 in the presence of heparin, while changing the amounts of FGF21, FGF19, and FGF1, as shown in the figure, and the amount of DNA synthesized was then measured.

[7] = molecular target: T3, FGFR2c/betaKlotho-expressing BaF3 cells (Mus musculus, UniProt P21803+Q99N32); experiment: DNA synthesis (thymidine incorporation) in FGFR2c/betaKlotho-expressing BaF3 cells; type: cell-based; settings: BaF3 cells expressing FGFR2c and betaKlotho; presence of heparin
T3 construct: the entire-length cDNA of mouse betaKlotho was cloned into an animal cell expression vector; expressed in transfected cells; host or cells: BaF3 (mouse pro-B) cells
Procedure: as §3, §2, §4

[8] = tested on: FGFR3c/betaKlotho-expressing BaF3 cells; experiment: DNA synthesis (thymidine incorporation) in FGFR3c/betaKlotho-expressing BaF3 cells; type: cell-based, mouse; settings: BaF3 cells expressing FGFR3c and betaKlotho
Procedure: as §3, §2
The activity of FGF21 to stimulate the DNA synthesis of BaF3 cells that had expressed each FGFR (FGFR1c, R2c, F3c, and R4) as well as betaKlotho was compared with the activity of FGF19, which was evolutionally relative to FGF21. By procedures opposite to those of Example 5, namely, an expression vector containing betaKlotho was introduced into BaF3 cells that had expressed each type of FGFR, so as to obtain Puromycin- and G418-resistant clones, thereby obtaining FGFR/betaKlotho-expressing cells. The cells were stimulated with FGF21, FGF19, and FGF1 in the presence of heparin, while changing the amounts of FGF21, FGF19, and FGF1, as shown in the figure, and the amount of DNA synthesized was then measured.

Sequence of FGFR3c/betaKlotho-expressing BaF3 cells (Q61851 21-369 limits assumed): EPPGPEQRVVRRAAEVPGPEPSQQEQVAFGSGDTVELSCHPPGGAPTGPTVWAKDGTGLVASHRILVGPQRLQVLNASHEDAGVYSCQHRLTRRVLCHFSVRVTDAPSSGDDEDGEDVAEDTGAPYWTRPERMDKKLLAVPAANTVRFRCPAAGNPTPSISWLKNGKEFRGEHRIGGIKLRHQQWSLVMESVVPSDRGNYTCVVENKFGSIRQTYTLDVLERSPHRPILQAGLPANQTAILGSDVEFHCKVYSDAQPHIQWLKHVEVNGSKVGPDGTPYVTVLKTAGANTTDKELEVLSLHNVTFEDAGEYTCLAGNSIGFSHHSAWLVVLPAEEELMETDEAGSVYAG
Sequence of FGFR3c/betaKlotho-expressing BaF3 cells (Q99N32 whole entry, further chain): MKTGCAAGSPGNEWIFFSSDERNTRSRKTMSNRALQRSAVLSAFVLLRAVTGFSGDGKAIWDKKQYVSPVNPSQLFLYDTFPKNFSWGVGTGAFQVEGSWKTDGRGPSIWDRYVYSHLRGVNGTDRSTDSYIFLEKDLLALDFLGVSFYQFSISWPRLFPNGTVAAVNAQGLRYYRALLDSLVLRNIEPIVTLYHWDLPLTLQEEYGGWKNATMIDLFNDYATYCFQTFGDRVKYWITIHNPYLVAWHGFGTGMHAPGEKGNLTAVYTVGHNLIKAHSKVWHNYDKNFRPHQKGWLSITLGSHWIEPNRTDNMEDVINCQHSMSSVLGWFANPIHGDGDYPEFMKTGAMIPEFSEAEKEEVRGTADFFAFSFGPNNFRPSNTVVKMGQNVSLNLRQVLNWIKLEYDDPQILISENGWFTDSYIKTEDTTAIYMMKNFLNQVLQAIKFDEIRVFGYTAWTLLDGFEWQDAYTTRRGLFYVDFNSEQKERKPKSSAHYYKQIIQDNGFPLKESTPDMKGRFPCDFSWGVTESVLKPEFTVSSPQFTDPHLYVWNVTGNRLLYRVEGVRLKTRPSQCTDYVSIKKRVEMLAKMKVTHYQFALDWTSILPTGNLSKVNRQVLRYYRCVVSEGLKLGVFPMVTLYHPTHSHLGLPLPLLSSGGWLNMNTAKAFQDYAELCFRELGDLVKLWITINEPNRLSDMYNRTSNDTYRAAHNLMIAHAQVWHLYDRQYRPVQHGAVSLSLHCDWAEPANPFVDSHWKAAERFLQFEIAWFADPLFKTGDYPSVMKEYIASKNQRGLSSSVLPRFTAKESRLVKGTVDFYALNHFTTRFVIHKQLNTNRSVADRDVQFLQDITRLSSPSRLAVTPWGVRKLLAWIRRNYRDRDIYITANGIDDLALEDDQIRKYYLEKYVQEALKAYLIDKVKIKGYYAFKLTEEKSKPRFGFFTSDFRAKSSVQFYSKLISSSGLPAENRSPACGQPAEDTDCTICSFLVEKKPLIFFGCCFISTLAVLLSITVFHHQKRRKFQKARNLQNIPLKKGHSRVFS
T1 sequence (P16092 22-822): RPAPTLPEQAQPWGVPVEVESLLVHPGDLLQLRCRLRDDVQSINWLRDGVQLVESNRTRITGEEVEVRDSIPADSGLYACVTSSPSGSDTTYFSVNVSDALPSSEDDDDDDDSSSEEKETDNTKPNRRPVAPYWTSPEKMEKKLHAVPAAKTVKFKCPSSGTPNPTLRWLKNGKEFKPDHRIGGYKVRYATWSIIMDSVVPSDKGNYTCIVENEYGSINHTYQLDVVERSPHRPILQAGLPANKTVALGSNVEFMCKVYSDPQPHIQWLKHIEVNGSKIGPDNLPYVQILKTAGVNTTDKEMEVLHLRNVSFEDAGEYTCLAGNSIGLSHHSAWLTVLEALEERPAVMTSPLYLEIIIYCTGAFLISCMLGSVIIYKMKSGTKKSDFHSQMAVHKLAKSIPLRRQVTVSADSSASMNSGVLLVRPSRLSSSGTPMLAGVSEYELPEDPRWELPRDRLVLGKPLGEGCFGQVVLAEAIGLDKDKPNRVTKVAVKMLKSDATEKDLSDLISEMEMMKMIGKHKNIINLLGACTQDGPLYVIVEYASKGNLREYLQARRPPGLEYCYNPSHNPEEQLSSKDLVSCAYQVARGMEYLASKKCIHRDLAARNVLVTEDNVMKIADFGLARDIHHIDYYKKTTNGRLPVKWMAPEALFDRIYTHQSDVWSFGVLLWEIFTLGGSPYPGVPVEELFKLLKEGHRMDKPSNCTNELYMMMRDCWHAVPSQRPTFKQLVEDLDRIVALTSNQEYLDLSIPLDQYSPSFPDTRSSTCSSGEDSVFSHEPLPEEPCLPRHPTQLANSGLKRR
T1 sequence (Q99N32 whole entry): as the sequence (Q99N32 whole entry, further chain) above
Sequence of FGFR4/betaKlotho-expressing BaF3 cells (Q03142 17-366 limits assumed): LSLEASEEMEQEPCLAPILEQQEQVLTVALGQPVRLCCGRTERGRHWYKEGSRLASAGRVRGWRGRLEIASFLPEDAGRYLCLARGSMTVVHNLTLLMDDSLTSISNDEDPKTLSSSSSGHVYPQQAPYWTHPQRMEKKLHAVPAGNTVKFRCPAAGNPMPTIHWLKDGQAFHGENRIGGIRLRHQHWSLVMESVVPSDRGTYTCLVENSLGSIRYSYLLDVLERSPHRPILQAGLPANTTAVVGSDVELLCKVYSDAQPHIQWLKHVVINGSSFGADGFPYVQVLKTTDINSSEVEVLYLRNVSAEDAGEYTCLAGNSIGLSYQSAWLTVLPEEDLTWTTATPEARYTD
Sequence of FGFR4/betaKlotho-expressing BaF3 cells (Q99N32 whole entry, further chain): as the sequence (Q99N32 whole entry, further chain) above
Sequence of R3c/betaKlotho-expressing cells (Q61851 21-369 limits assumed): as the sequence (Q61851 21-369 limits assumed) above
Sequence of R3c/betaKlotho-expressing cells (Q99N32 whole entry, further chain): as the sequence (Q99N32 whole entry, further chain) above
Sequence of FGFR4/betaKlotho-expressing cells (Q03142 143-366 limits assumed): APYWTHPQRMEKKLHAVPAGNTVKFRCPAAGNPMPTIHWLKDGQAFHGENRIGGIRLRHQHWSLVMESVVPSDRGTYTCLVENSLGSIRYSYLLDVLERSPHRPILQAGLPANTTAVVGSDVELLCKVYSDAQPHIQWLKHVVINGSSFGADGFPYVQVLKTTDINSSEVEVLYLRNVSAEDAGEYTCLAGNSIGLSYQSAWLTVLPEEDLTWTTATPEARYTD
Sequence of FGFR4/betaKlotho-expressing cells (as listed by the source): as the sequence (Q99N32 whole entry, further chain) above
T2 sequence (P21803 22-821): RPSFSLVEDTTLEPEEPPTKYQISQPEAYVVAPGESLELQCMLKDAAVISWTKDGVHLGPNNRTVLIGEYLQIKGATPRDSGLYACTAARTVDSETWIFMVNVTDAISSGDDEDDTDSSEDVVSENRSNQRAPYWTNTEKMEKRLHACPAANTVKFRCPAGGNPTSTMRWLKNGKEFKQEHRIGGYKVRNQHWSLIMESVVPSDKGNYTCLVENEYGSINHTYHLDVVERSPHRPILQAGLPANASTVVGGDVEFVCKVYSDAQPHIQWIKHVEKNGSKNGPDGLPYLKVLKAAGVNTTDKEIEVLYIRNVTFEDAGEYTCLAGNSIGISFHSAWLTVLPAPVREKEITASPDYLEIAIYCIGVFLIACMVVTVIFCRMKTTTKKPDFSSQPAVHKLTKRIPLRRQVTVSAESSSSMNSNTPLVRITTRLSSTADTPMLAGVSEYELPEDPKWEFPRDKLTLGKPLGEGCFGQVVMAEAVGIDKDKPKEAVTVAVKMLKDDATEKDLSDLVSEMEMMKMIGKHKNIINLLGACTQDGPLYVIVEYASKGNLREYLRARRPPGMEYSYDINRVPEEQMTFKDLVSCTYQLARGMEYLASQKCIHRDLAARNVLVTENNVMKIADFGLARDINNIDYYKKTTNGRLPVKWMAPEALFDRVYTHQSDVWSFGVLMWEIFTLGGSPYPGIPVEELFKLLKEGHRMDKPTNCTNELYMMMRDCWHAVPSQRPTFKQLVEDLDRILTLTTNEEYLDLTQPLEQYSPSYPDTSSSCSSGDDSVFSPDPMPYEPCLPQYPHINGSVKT
T2 sequence (Q99N32 whole entry): as the sequence (Q99N32 whole entry, further chain) above
T3 sequence (P21803 22-821): as the sequence (P21803 22-821) above
T3 sequence (Q99N32 whole entry): as the sequence (Q99N32 whole entry, further chain) above

Row | Molecule | phosphorylation of FRS2 and MAPK [1] | phosphorylation of FRS2 and MAPK [2] | phosphorylation of FRS2 and MAPK [3] | influence of heparin on stimulus transmission activity (thymidine incorporation) [4] | phosphorylation of FRS2 and MAPK [5] | DNA synthesis (thymidine incorporated into the cells) [6] | DNA synthesis (thymidine incorporated into the cells) [7] | DNA synthesis (thymidine incorporated into the cells) [8]
1 | FGF1: conventional FGF used as a control | significantly increase the phosphorylation | significantly increase the phosphorylation | significantly increase the phosphorylation | sharply increased in the presence of heparin | significantly increase the phosphorylation | reacts with all of the receptors | reacts with all of the receptors | reacts with all of the receptors
2 | FGF21: fibroblast growth factor 21; mouse-derived protein used in Examples 1-7 and 10-13 (protein) AYPIPDSSPLLQFGGQVRQRYLYTDDDQDTEAHLEIREDGTVVGAAHRSPESLLELKALKPGVIQILGVKASRFLCQQPDGALYGSPHFDPEACSFRELLLEDGYNVYQSEAHGLPLRLPQKDSPNQDATSWGPVRFLPMPGLLHEPQDQAGFLPPEPPDVGSSDPLSMVEPLQGRSPSYAS | increases the phosphorylation | only in FGFR1c/betaKlotho-expressing cells and FGFR3c/betaKlotho-expressing cells | increases the phosphorylation | does not significantly influence | only in FGFR1c/betaKlotho-expressing cells and FGFR3c/betaKlotho-expressing cells | reacts only with FGFR1c and FGFR3c | slightly react with FGFR2c | reacted with FGF21; also recorded: activates
